The supplement of paper PMC11246515
± gives the standard deviation of the averaged measurements.

Test: total protein half-life in vivo (active degradation + dilution); higher = more stable protein
[1] = E. coli NCM3722 delta-clpP delta-lon delta-hslV, growth: N-lim chemostat, doubling time 6 h
[2] = E. coli NCM3722 delta-hslV, growth: N-lim chemostat, doubling time 6 h
[3] = E. coli NCM3722 delta-lon, growth: N-lim chemostat, doubling time 6 h
[4] = E. coli NCM3722 delta-smpB, growth: N-lim chemostat, doubling time 6 h
[5] = wild type E. coli NCM3722, growth: C-lim chemostat, doubling time 3 h
[6] = wild type E. coli NCM3722, growth: C-lim chemostat, doubling time 6 h
[7] = wild type E. coli NCM3722, growth: C-lim chemostat, doubling time 12 h
[8] = wild type E. coli NCM3722, growth: N-lim chemostat, doubling time 6 h
[9] = wild type E. coli NCM3722, growth: N-lim chemostat, doubling time 12 h
[10] = wild type E. coli NCM3722, growth: P-lim chemostat, doubling time 12 h
[11] = wild type E. coli NCM3722, growth: P-lim chemostat, doubling time 6 h

Row | Sequence | total protein half-life in vivo [1] [h] | total protein half-life in vivo (E. coli NCM3722 delta-clpP, growth: N-lim chemostat, doubling time 6 h) [h] | total protein half-life in vivo [2] [h] | total protein half-life in vivo [3] [h] | total protein half-life in vivo [4] [h] | total protein half-life in vivo [5] [h] | total protein half-life in vivo [6] [h] | total protein half-life in vivo [7] [h] | total protein half-life in vivo [8] [h] | total protein half-life in vivo [9] [h] | total protein half-life in vivo [10] [h] | total protein half-life in vivo [11] [h]
1 | MNKIFSSHVMPFRALIDACWKEKYTAARFTRDLIAGITVGIIAIPLAMALAIGSGVAPQYGLYTAAVAGIVIALTGGSRFSVSGPTAAFVVILYPVSQQFGLAGLLVATLLSGIFLILMGLARFGRLIEYIPVSVTLGFTSGIGITIGTMQIKDFLGLQMAHVPEHYLQKVGALFMALPTINVGDAAIGIVTLGILVFWPRLGIRLPGHLPALLAGCAVMGIVNLLGGHVATIGSQFHYVLADGSQGNGIPQLLPQLVLPWDLPNSEFTLTWDSIRTLLPAAFSMAMLGAIESLLCAVVLDGMTGTKHKANSELVGQGLGNIIAPFFGGITATAAIARSAANVRAGATSPISAVIHSILVILALLVLAPLLSWLPLSAMAALLLMVAWNMSEAHKVVDLLRHAPKDDIIVMLLCMSLTVLFDMVIAISVGIVLASLLFMRRIARMTRLAPVVVDVPDDVLVLRVIGPLFFAAAEGLFTDLESRLEGKRIVILKWDAVPVLDAGGLDAFQRFVKRLPEGCELRVCNVEFQPLRTMARAGIQPIPGRLAFFPNRRAAMADL [P0AFR2] | 5.99 ± 0.062 | 6.21 ± 0.72 | 5.51 | 5.97 ± 0.73 | 5.82 ± 0.46 | 1.95 | 6.39 ± 0.93 | > 16 | 6.43 ± 1.8 | > 16 | 7.77 | –
2 | MNKLIELRRAKRLALSLLLIAAATFVVTLFLPPNFWVSGVKAIAEAAMVGALADWFAVVALFRRVPIPIISRHTAIIPRNKDRIGENLGQFVQEKFLDTQSLVALIRRHEPALLIGNWFSQPENARRVGQHLLQIMSGFLELTDDARIQRLLKRAVHRAIDKVDLSGTSALMLESMTKNDRHQVLLDTLIAQLIALLQRDKSRKFIAQQIVRWLESEHPLKAKILPTEWLGEHSAELVSDAVNSLLDDISRDRAHQIRHAFDRATFALIDKLKNDPEMAARADAVKSYLKEDEAFNRYLSELWGDLREWLKVDINSEDSRVKERIARAGQWFGETLIADDALRASLNGHLEQAAHRVAPEFSAFLTRHISDTVKSWDARDMSRQIELNIGKDLQFIRVNGTLVGGCIGLILYLLSQLPALFPLGNF | 5.72 ± 0.23 | – | 6.12 ± 0.14 | 5.6 ± 0.16 | 5.794 ± 0.016 | 3.17 ± 0.071 | 5.3 ± 0.096 | 12.3 ± 2.3 | 6.365 ± 0.03 | 12.37 ± 0.058 | 12.4 ± 1.6 | 5.7 ± 0.39
3 | MNKLQSYFIASVLYVMTPHAFAQGTVTIYLPGEQQTLSVGPVENVVQLVTQPQLRDRLWWPGALLTDSAAKAKALKDYQHVMAQLASWEAEADDDVAATIKSVRQQLLNLNITGRLPVKLDPDFVRVDENSNPPLVGDYTLYTVQRPVTITLLGAVSGAGQLPWQAGRSVTDYLQDHPRLAGADKNNVMVITPEGETVVAPVALWNKRHVEPPPGSQLWLGFSAHVLPEKYADLNDQIVSVLTQRVPD | – | – | – | – | – | – | – | – | – | 7.71 | – | –
4 | MNKNRGFTPLAVVLMLSGSLALTGCDDKQAQQGGQQMPAVGVVTVKTEPLQITTELPGRTSAYRIAEVRPQVSGIILKRNFKEGSDIEAGVSLYQIDPATYQATYDSAKGDLAKAQAAANIAQLTVNRYQKLLGTQYISKQEYDQALADAQQANAAVTAAKAAVETARINLAYTKVTSPISGRIGKSNVTEGALVQNGQATALATVQQLDPIYVDVTQSSNDFLRLKQELANGTLKQENGKAKVSLITSDGIKFPQDGTLEFSDVTVDQTTGSITLRAIFPNPDHTLLPGMFVRARLEEGLNPNAILVPQQGVTRTPRGDATVLVVGADDKVETRPIVASQAIGDKWLVTEGLKAGDRVVISGLQKVRPGVQVKAQEVTADNNQQAASGAQPEQSKS [P0AE06] | 5.95 ± 0.32 | – | 6.3 ± 0.28 | 6.62 ± 0.54 | 5.93 ± 0.21 | 2.921 ± 0.024 | 5.84 ± 0.46 | 12.1 ± 0.26 | 6.134 ± 0.05 | 13.33 ± 0.11 | 12.5 ± 0.88 | 5.814 ± 0.041
